Assay results taken from patent US7919579B2, “Imaging and therapeutic targeting of prostate and bladder tissues” (The Board of Regents of the University of Texas System, priority 2006, dated 2011).
Entries after “also recorded” stand apart in the source; their conditions may differ.

Experiments:
[1] = biodistribution of ^64Cu-DOTA-R11 in normal nude mice; type: in vivo; conditions: 5-10 μCi; % ID/g
Description: FIG. 6—Biodistribution data of ^64Cu-DOTA-R11 in normal nude mice (n=4). Data are presented as % ID/g±s.d. SV: seminal vesicle; CG: coagulation gland.
The injected dose of ^64Cu-DOTA-R11 in the biodistribution studies was in range of 5-10 μCi. The animals were sacrificed at specific time points (n=4 at each time point). Organs of interest were removed, weighed, and counted. Standards were prepared and counted along with the samples to calculate the percent injected dose per gram tissue (% ID/g).
In order to explore the application of R11 for the detection of bladder cancer metastasis via PET, the inventors conjugated this peptide with a bifunctional chelator, DOTA (1,4,7,10-tetraazacyclododecane-1,4,7,10-tetraacetic acid), so that R11 could be radiolabeled with ^64Cu. […] The radiolabeled peptide was purified via a C-18 cartridge (Millipore) to have >95% radiochemical purity as determined by radio-TLC and HPLC prior to the biodistribution and PET imaging studies. […] Organs of interest were removed, weighed, and counted. Standards were prepared and counted along with the samples to calculate the percent injected dose per gram tissue (% ID/g). […] In addition, the pharmacokinetics of the ^64Cu-labeled peptide was also evaluated by using a two-compartment model.

in vivo [2] = assay: in vivo; parameters: species or system nude mice; conditions: nude, mouse
Description: Peptides may be radiolabeled with ^18F or ^64Cu for in vitro and in vivo PET imaging evaluations. The peptides may be prepared using standard F-moc chemistry on an automated peptide synthesizer. Pharmacokinetic parameters of ^64Cu-labeled R11, the lead peptide, were evaluated by the inventors in preliminary experiments by using a two-compartment model. […] However, due to the unknown mechanism of the peptide specificity, it is reasonable to assume that a longer circulation time in the blood is preferable to enhance the image contrast. […]
The tissue distribution of the radiolabeled peptides or peptide conjugates may be evaluated in normal nude mice. […] At selected time points post-injection, animals may be sacrificed, and organs of interest removed, weighed, and counted. The percent injected dose per gram (% ID/g) and percent injected dose per organ (% ID/organ) can be calculated by comparison to a weighed, counted, standard. […] Specifically, blood (10-20-μL) can be drawn from the retroorbital sinus of the animals at 5-min, 10-min, 20-min, and 40-min, and counted on a gamma counter.
The pharmacokinetics of the ^64Cu-labeled peptide was also evaluated by using a two-compartment model. […]

in vivo [3] = assay: in vivo; parameters: species or system nude mice; conditions: nude, mouse; remark: listed apart in the source
Description: The lungs were removed from both mice. […] The harvested lungs were imaged by microPET again.

T24 lung metastases = conditions: mouse, in vivo
Description: (§1) The tumor-bearing animal model was established by injecting into the left flank of each nude mouse subcutaneously with human T24 cell suspension (2×10^6 cells in 100-μL of medium). The tumors were allowed to grow for 42 days prior to PET imaging. […] The microPET imaging studies were performed using the microPETR4 rodent scanner (Concorde Microsystems, Knoxville, Tenn.). The scanner provides a 10×8 cm field of view, and the scanner is currently capable of an axial and transaxial resolution of 2 mm, with an absolute sensitivity of 900 counts per second per μCi. Images were reconstructed using Fourier rebinning followed by two-dimensional filtered back projection. […] At 15 min, 60 min, and 4 hr post injection (p.i.), the mice were anesthetized and immobilized in a supine position on a support bed with attached anesthetic gas nose cones for data collection. The imaging collection time was 10 min.
(§2) After the 4-hr microPET imaging, the animals were sacrificed. The lungs were removed from both mice. […] The harvested lungs were imaged by microPET again.

in vivo [4] = conditions: nude, mouse, iv, uptake of control lungs
Description: as §1, §2

N=C(N)NCCCC(NC(=O)C(CCCNC(=N)N)NC(=O)C(CCCNC(=N)N)NC(=O)C(CCCNC(=N)N)NC(=O)C(CCCNC(=N)N)NC(=O)C(CCCNC(=N)N)NC(=O)C(CCCNC(=N)N)NC(=O)C(CCCNC(=N)N)NC(=O)C(CCCNC(=N)N)NC(=O)C(CCCNC(=N)N)NC(=O)C(CCCNC(=N)N)NC(=O)CNC(=O)CN1CCN(CC(=O)O)CCN(CC(=O)O)CCN(CC(=O)O)CC1)C(=O)O (stereo not shown) [^64Cu-DOTA-R11, DOTA-G-RRRRRRRRRRR, metal not drawn]
accumulation in prostate and bladder [1]: strong tendency to accumulate in prostate and bladder
uptake in other organs (blood, lungs, liver, spleen, kidneys, muscle) [1]: remarkably low uptake in other organs; also recorded: remarkably low uptake by other organs
half-life (in vivo [2]; elimination half life from other organs (the secondary compartment)): 17.2 h
half-life (in vivo [2]; half-life in the blood (the primary compartment)): ~0.178 h
tissue to tissue ratio (in vivo [3]): > 8
ex vivo microPET and autoradiography of lungs with T24 metastases (T24 lung metastases): elevated uptake
tissue uptake at 0.25 h (in vivo [4]): < 4 %ID/g
